Changes are numbered by the printed parent chain. Like-named read-outs stand apart in the source and are kept apart here.
T1: ACVR2B-Fc fusion protein (human, UniProt Q13705 19-137)
T1 construct: also called water-soluble ACVR2B
T1 sequence: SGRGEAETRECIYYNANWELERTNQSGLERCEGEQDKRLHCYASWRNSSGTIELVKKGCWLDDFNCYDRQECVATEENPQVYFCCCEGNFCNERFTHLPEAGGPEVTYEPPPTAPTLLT

T2: C-terminally active myostatin (R&D systems) (UniProt O14793 267-375, limits assumed)
T2 construct: mature
T2 sequence (looked up): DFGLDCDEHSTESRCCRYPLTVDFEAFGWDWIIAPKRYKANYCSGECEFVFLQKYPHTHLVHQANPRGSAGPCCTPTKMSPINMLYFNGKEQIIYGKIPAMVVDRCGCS

B1: ACVR2B A09 (monoclonal scFv-phage) (scFv, V domains shown)
VH: VQLVESGGGLVQPGRSLRLSCAASGFTFDSYWMSWVRQAPGKGLEWVANIKYDGSEKHYMDSVKGRFTISRDNAKNSVYLQMNSLRAEDTAVYYCAKGAWLDYWGQGTQVTVSS
VL: IQMTQSPSAMSASVGDRVTITCRASQGISNYLAWFQQKPGKVPKRLIYAASSLQSGVPSRFSGSGSGTGFTLTITSLQPEDFATYYCLQHKSYPYTFGQGTKLEIK
notes: also called A9
B2: ACVR2B F08 (monoclonal scFv-phage) (scFv, V domains shown)
VH: VQLVESGGGLVQPGGSLRLSCAASGFTFSDHYMDWVRQAPGKGLEWVGRTRNKANSYTTEYAASVKGRFTISRDDSKNSLYLQMNSLRAEDTAVYYCTKGAWLDYWGQGTLVTVSS
VL: B1 VL with A49G, S55G, G69E, Y86F, Y95L, Q99P, L103V
notes: also called F8
B3: ACVR2B B12 (monoclonal scFv-phage) (scFv, V domains shown)
VH: VQLVQSGAEVKKPGESLKISCKTSGYTFTHYWIGWVRQMPGKGLEWMGRINPTDSYADYSPSFQGHVIMSVDKSVSTAYLHWNSLKASDTAMYYCARGTALGVWGQGTTVTVSS
VL: B1 VL with G69E
B4: EGF4-6-Fc (Fc fusion)
chain: KDGPCVINGSPCQHGGTCVDDEGRASHASCLCPPGFSGNFCEIVANSCTPNPCENDGVCTDIGGDFRCRCPAGFIDKTCSRPVTNCASSPCQNGGTCLQHTQVSYECLCKPEFTGLTCVKKRALSPQQVTRLPSGYGLAYRLTPGVHELPVQQPEHRILKVSMKELNKKTPLLTEG
notes: also called 4M-Fc; not shown: human antibody Fc region of the pYK602-Fc vector and any SfiI-junction residues
B5: EGF6-Fc (Fc fusion)
chain: PVTNCASSPCQNGGTCLQHTQVSYECLCKPEFTGLTCVKKRALSPQQVTRLPSGYGLAYRLTPGVHELPVQQPEHRILKVSMKELNKKTPLLTEG
notes: also called 6M-Fc; not shown: human antibody Fc region of the pYK602-Fc vector and any SfiI-junction residues
B6: ACVR2B B08 (monoclonal scFv-phage) (scFv, V domains shown)
VH: VQLVQSGGGLVHPGQSLRLSCTGSGFPFGDYSMTWVRQAPGKGLEWVGLVRSKAYGGTTEYAASVKGRFIMSRDDSRSIAYLQMNSLRAEDTAVYYCARGHYGMDVWGQGTTVTVSS
VL: DIQMTQSPSSVSASVGDRVTITCRASQGISNWLAWYQQKPGKAPKLLIYAASSLQSGVPSRFSGSGSGTDFTLTISSLQPEDFATYYCQQAKSYPYTFGQGTKVEIK
notes: also called B8

Legend:
ACVR2B-Fc fusion protein [1] = molecular target: T1, ACVR2B-Fc fusion protein; assay: phage ELISA; OD on ACVR2B divided by OD on a-myc
Fc [2] = molecular target: T3, Fc; assay: phage ELISA, Fc coated
T3 construct: domain: Fc
Experimental: (§1) Colonies obtained from a group of the polyclonal phage antibodies having high binding capacity were cultured at a temperature of 37° C. for 16 hours in a 96-deep well plate (Bioneer 90030) containing 1 ml of a medium supplemented with 2×YTCM, 2% glucose, and 5 mM MgCl₂. 100 to 200 μl of the cultured cells were taken, and diluted with 1 ml of a medium supplemented with 2×YTCM, 2% glucose, and 5 mM MgCl₂ so that the OD₆₀₀ value of the cultured cells reached 1. Thereafter, the cells were cultured at a temperature of 37° C. for 2 to 3 hours in a 96-deep well plate so that the OD₆₀₀ value reached 0.5 to 0.7. Then, the cells were infected with an […] so that an MOI value became 1:20, and then cultured at a temperature of 30° C. for 16 hours in a medium supplemented with 2×YTCMK, 5 mM MgCl₂, and 1 mM IPTG. The cultured cells were centrifuged (at 4,500 rpm and 4° C. for 15 minutes) to collect a supernatant. Then, the supernatant was thoroughly dissolved in 4% PEG 6000 and 3% NaCl, and reacted on ice for an hour. The resulting reaction mixture was centrifuged again (at 8,000 rpm and 4° C. for 20 minutes), and the pellet was dissolved in PBS, and then centrifuged (at 12,000 rpm and 4° C. for 10 minutes) to obtain a supernatant, which was transferred to a new tube and stored at 4° C. Subsequently, a 96-well immunoplate was coated with antigens at a concentration of 100 ng per well by treating the immunoplate with the antigens at 4° C. for 16 hours, and each well was then blocked with skim milk (4%) dissolved in PBS. Each well was washed with 0.2 ml of PBS-Tween 20 (0.05%), and 100 μl of the monoclonal scFv-phages obtained by the above-described method were added to each well, and then reacted at room temperature for 2 hours. Each well was again washed four times with […] of PBS-Tween 20 (0.05%), and a secondary antibody, anti-M13-HRP, was diluted at 1:2000, added to each well, and then reacted at room temperature for an hour. Each well was washed with […] of PBS-Tween 20, colorimetrically developed, and then measured for optical density at 490 nm.

Fc [3] = molecular target: T3, Fc; assay: phage ELISA, Fc coated; remark: listed apart in the source
[4] = molecular target: T4, anti-myc antibody coated on the ELISA plate; assay: phage ELISA, anti-myc coated
T4 construct: also called a-MYC; a-myc
Experimental: as §1

ACVR2B-Fc fusion protein [5] = molecular target: T1, ACVR2B-Fc fusion protein; assay: phage ELISA, ACVR2B coated
Experimental: as §1

[6] = molecular target: T4, anti-myc antibody coated on the ELISA …; assay: phage ELISA, anti-myc coated; remark: listed apart in the source
ACVR2B-Fc fusion protein [7] = molecular target: T1, ACVR2B-Fc fusion protein; assay: phage ELISA, ACVR2B coated; remark: listed apart in the source
ACVR2B-Fc fusion protein [8] = molecular target: T1, ACVR2B-Fc fusion protein; assay: SPR (ProteOn XPR36), ACVR2B-Fc coated on the chip, Fc channel as reference
Experimental: This experiment was performed using a ProteOn XPR36 instrument (Bio-Rad). First, a sensor chip (GLC) was activated by reacting 0.1 M EDC and 0.025 M sulfo-NHS (Bio-Rad) for 60 seconds. […] The coating procedure was completed by allowing 1 M ethanolamine-HCl) (pH 8.5) to flow at the coated chip for 200 seconds. To test the bound proteins, the chip was rotated at an angle of 90°, and stabilized by allowing DPBST (PBS with 0.005% Tween 20) to flow on the chip for 30 minutes.

[9] = molecular target: T2, C-terminally active myostatin (R&D …); assay: ELISA, coating 1 ug/ml myostatin, binding 10 nM, anti-human Fc HRP

Row | Binder | Ratio (ACVR2B-Fc fusion protein [1]) | OD490 (Fc [2]) [OD] | OD490 (Fc [3]) [OD] | OD490 [4] [OD] | OD490 (ACVR2B-Fc fusion protein [5]) [OD] | OD490 [6] [OD] | OD490 (ACVR2B-Fc fusion protein [7]) [OD] | binding result (ACVR2B-Fc fusion protein [8]) | binding result [9]
1 | B1 | 1.86 | 0.0482 | 0.048 | 1.17 | 2.18 | 1.17 | 2.18 |  | 
2 | B2 | 3.75 | 0.117 | 0.116 | 0.783 | 2.94 | 0.783 | 2.94 |  | 
3 | B3 | 1.89 | 0.0447 | 0.044 | 1.46 | 2.76 | 1.46 | 2.75 |  | 
4 | B4 |  |  |  |  |  |  |  | binds | binds
5 | B5 |  |  |  |  |  |  |  | no binding | binds
6 | B6 | 2.28 | 0.0455 | 0.045 | 1.16 | 2.64 | 1.16 | 2.64 |  | 

Reference: patent publication US20150030595A1 (ANTIBODY AND RECEPTOR THERAPEUTICS, published 2015)
